Reference: patent US20020086983A1 (THOMAS JEFFERSON UNIVERSITY, published 2002)

T1: T7-FLAME-2 (Homo sapiens (Human), UniProt O75618 1-318)
T1 sequence: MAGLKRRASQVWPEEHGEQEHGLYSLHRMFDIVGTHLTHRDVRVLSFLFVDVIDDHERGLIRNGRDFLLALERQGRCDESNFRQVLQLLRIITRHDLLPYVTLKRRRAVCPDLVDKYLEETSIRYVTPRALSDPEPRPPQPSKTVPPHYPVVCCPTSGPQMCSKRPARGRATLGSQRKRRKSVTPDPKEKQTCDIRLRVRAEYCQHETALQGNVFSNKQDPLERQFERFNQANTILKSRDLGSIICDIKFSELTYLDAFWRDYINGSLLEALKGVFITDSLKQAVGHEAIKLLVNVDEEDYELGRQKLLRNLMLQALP

B1: B42-FADD-DED (murine FADD-DED, residues 1-78) (other, UniProt Q61160 1-78, looked up, not shown: large carriers)
chain: MDPFLVLLHSLSGSLSGNDLMELKFLCRERVSKRKLERVQSGLDLFTVLLEQNDLERGHTGLLRELLASLRRHDLLQR
notes: range 1-78
B2: Flag-tagged Fas (receptor, UniProt P25445 26-335, looked up, not shown: small tags and cut ends)
chain: QVTDINSKGLELRKTVTTVETQNLEGLHHDGQFCHKPCPPGERKARDCTVNGDEPDCVPCQEGKEYTDKAHFSSKCRRCRLCDEGHGLEVEINCTRTQNTKCRCKPNFFCNSTVCEHCDPCTKCEHGIIKECTLTSNTKCKEEGSRSNLGWLCLLLLPIPLIVWVKRKEVQKTCRKHRKENQGSHESPTLNPETVAINLSDVDLSKYITTIAGVMTLSQVKGFVRKNGVNEAKIDEIKNDNVQDTAEQKVQLLRNWHQLHGKKEAYDTLIKDLKKANLCTLAEKIQTIILKDITSDSENSNFRNEIQSLV
notes: Expressed in 293T cells and immunoprecipitated with the anti-Flag antibody

Assays:
[1] = biological target: LexA-FLAME-1-FDH (residues 1-160) (human, UniProt O15519 1-160); test: yeast two-hybrid assay
[2] = biological target: T1, T7-FLAME-2; test: co-immunoprecipitation from transfected 293T cells with Flag-tagged Fas, with or without T7-FADD
Method: After 34-36 h, extracts were prepared and immunoprecipitated with a monoclonal antibody to the Flag-epitope. […] Cells were lysed in a lysis buffer (50 mM Tris, pH 7.6, 150 mM NaCl, 0.1 NP-40) and incubated with anti Flag-M5 monoclonal antibody (IBI Kodak). The immune complexes were precipitated with protein-A/G-Sepharose, washed and then eluted by boiling in SDS-sample buffer. The eluted proteins were resolved by SDS-PAGE and detected by Western analysis with a HRP-conjugated T7-antibody (Novagen). The samples were analyzed by SDS-PAGE and Western blotted with a horseradish peroxidase (HRP)-conjugated T7-antibody. All extracts were immunoblotted with anti-Flag and anti-T7 to verify expression of the encoded proteins.

binding result [1]	binding result [2]	Binder
binds		B1
	no binding	B2
